Source: article doi:10.1101/808618v2

How the values were obtained:
Assay in all cases: purified protein
purified protein [1] = substrate: O=c1[nH]c(=O)c2ncn([C@@H]3O[C@H](COP(=O)(O)O)[C@@H](O)[C@H]3O)c2[nH]1; conditions: pH 8.5, 25 °C, 20 mM MgCl2, ATP 2 mM, Gln 5 mM fixed
purified protein [2] = substrate: NC(=O)CC[C@H](N)C(=O)O; conditions: pH 8.5, 25 °C, 20 mM MgCl2, XMP […], ATP 2 mM fixed
purified protein [3] = substrate: Nc1ncnc2c1ncn2[C@@H]1O[C@H](COP(=O)(O)OP(=O)(O)OP(=O)(O)O)[C@@H](O)[C@H]1O; conditions: pH 8.5, 25 °C, 20 mM MgCl2, XMP […], Gln 5 mM fixed

B1: PfGMPS (Plasmodium falciparum 3D7) (protein)
chain: MEGEEYDKILVLNFGSQYFHLIVKRLNNIKIFSETKDYGVELKDIKDMNIKGVILSGGPYSVTEAGSPHLKKEVFEYFLEKKIPIFGICYGMQEIAVQMNGEVKKSKTSEYGCTDVNILRNDNINNITYCRNFGDSSSAMDLYSNYKLMNETCCLFENIKSDITTVWMNHNDEVTKIPENFYLVSSSENCLICSIYNKEYNIYGVQYHPEVYESLDGELMFYNFAYNICKCKKQFDPIRYHELELKNIEKYKHDHYVIAAMSGGIDSTVAAAYTHKIFKERFFGIFIDNGLLRKNEAENVYTFLKSTFPDMNITKIDASENFLSNLQGVTDPEQKRKIIGKLFIEEFEKAVNNIDIDINKTFLLQGTLYPDIIESKCSKNLSDTIKTHHNVGGLPKNLKFKLFEPFKYLFKDDVKTLSRELNLPEEITNRHPFPGPGLAIRVIGEINKHKLNILREVDDIFINDLKQYGLYNQISQAFAVLLSSKSVGVRGDARSYDYVCVLRAVKTSSFMTANWYQIPYDILDKITTRILSEVKGVNRILYDVSSKPPATIEFE
Q: B1 was tested. Which Km (purified protein [1]) did it give?
A: The Km was 7.1 ± 1 µM.

Q: What about the kcat (purified protein [1]) of the same protein?
A: Its kcat is 0.741 ± 0.058 s⁻¹.

Q: What about the Km (purified protein [2]) of the same protein?
A: Its Km is 330 ± 20 µM.

Q: And the kcat (purified protein [2])?
A: Its kcat is 0.766 ± 0.005 s⁻¹.

Q: And the Km (purified protein [3])?
A: Its Km is 119 ± 2 µM.

Q: What about the kcat (purified protein [3]) of the same protein?
A: The kcat was 0.893 ± 0.039 s⁻¹.
